Here are results for one molecule from patent US9394371B2, “Antibody-mediated disruption of quorum sensing in bacteria” (The Scripps Research Institute, priority 2007, dated 2016).

Experiment [1] concerns S. aureus RN6390B. Put plainly: Static biofilm analysis (crystal violet). Type of experiment: cell-based. As to conditions: FIG. 10B.
A further experiment concerns the target AIP-1. Kind of experiment: Competition ELISA (free native AIP against hapten-BSA coated plates). Type of experiment: binding, S. aureus. The conditions noted are these: AP1 Sups; AP1-BSA coated plates; read-out: AIP1 wt. For orientation: In an ELISA, binding on a coated surface is turned into a signal by an enzyme label.
Another experiment addresses AIP-4. The description is as above. Type of experiment: binding, S. aureus. The conditions noted are these: AP1 Sups; AP1-BSA coated plates; read-out: AIP4 wt. On the procedure:
(§1) The optimal concentrations of the AP4-BSA conjugate as well as of each mAb were determined. 96 well ELISA plates were coated with the appropriate amount of AP4-BSA conjugate respectively. The plates were blocked with 4% skim milk, washed and mAbs were added at the predetermined optimal concentration. The plates were washed and free antigen, i.e. the native AIPs 1-4, was added to the wells in a concentration series starting at 100 μM. The plate was incubated for 1 hour at 37° C., thoroughly washed, and goat anti-mouse-horseradish peroxidase (HRP) conjugate (Pierce, Rockford, Ill.) was added. After an incubation period of 1 hour at RT, the plate was thoroughly washed again and the HRP substrate (TMB substrate kit; Pierce) was added, the reaction was allowed to develop for 15 minute and stopped by the addition of 2 M H2SO4. The absorbance at 450 nm was read and the values plotted using GraFit (Erithacus Software Ltd). The free antigen concentration at which the absorbance value is 50% of the maximum absorbance was considered the Kd of the antibody for its antigen.
as §1, with “For the competition ELISA analysis, the optimal concentrations” for “The optimal concentrations”, “of the AP1-BSA, AP3-BSA, or AP4-BSA conjugate,” for “of the AP4-BSA conjugate”, “or AP4-BSA conjugate, as well” for “the AP4-BSA conjugate as well”, “amount of AP1-BSA, AP3-BSA, or AP4-BSA conjugate” for “amount of AP4-BSA conjugate”, “blocked with 4 v % skim milk,” for “blocked with 4% skim milk,”, “for 15 minutes and stopped” for “for 15 minute and stopped”

The next experiment addresses AIP-2. The description is as above. In kind it is binding, S. aureus. As to conditions: AP1 Sups; AP1-BSA coated plates; read-out: AIP2 wt.
A further experiment relates to S. aureus USA300. Kind of experiment: Postexposure therapy of lethal systemic MRSA USA300 challenge. Type of experiment: in vivo, C57BL/6 mice. The conditions noted are these: 1 mg i.p. 2 hours after infection with at least 1×10^8 S. aureus USA300; n=6; FIG. 12. On the procedure: Mice were treated with AP1-15B4 (1 mg) or control IgG (1 mg) 2 hours after S. aureus injection (1-3×10^8 i.p.). The numbers in parenthesis show survivors per group, p=0.02; n=6 for each group.
C57BL/6 mice received 1 mg of AP1-15B4 (i.p.), isotype control IgG or PBS 2 hours after they had been infected with at least 1×10^8 S. aureus USA300, an agr I MRSA strain. See Diep et al., Lancet 2006, 367, (9512), 731-739. USA300 is in fact one of the most common community-acquired MRSA (CA-MRSA) strains and represents an increasing threat for civilians and military personnel. Hageman et al., Diagn Microbiol Infect Dis 2008; James et al., Arch Dis Child Fetal Neonatal Ed 2008, 93, (1), F40-4; Tenover et al., J Clin Microbiol 2006, 44, (1), 108-18; Beilman et al., Surg Infect (Larchmt) 2005, 6, (1), 87-92. […] In contrast, only two of the PBS treated control mice (2/6) and 2 of the control IgG treated mice (2/6) survived longer than 24 hours.

Experiment [2] concerns S. aureus RN6390B. Type of experiment: cell-based.

B1: AP1-15B4: murine anti-AIP1 monoclonal antibody; VH SEQ ID NO: 19, VL SEQ ID NO: 147 (antibody, V domains shown)
VH: EVHLVESGGDLVKPGGSLKLSCAASGFAFSDFAMSWVRQTPEKRLEWVAIIKSDDSYTYYPDSVRDRFTISRDNARNTLYLQMTSLRSEDTALYYCTKIYDAYFYAMDYWGQGTSVTVSS
VL: DIVRTQSPLSLSVSLGDQASISCRSSQSLLHSNGNTYLHWYLQKPGQSPKLLIYKVSNRFSGVPDRFSGSGSGTDFTLKISILEAEDLGIYFCSQSTHFPTFGGGTKLEIK
modifications: Murine
With B1, the static biofilm formation result with S. aureus RN6390B [1] is “increase in biofilm formation”. Also, the values for the Kd at AIP-1, at AIP-4 and at AIP-2 were roughly 0.8 µM, greater than 100 µM and greater than 100 µM, respectively. Besides, the “mice surviving through the 48-hour observation period” value in the experiment with S. aureus USA300 is reported as 4 out of 6. For the same molecule, the “quorum sensing inhibition of group I strains (α-hemolysin expression)” value in the experiment with S. aureus RN6390B [2] is given as “efficiently inhibit quorum sensing”. For the same molecule, the “quorum sensing inhibition, hemolysin expression” value in the experiment on S. aureus RN6390B [2] is reported as “most potent activity”.
